The text below walks through data of article PMC3138737, “Interaction between the Triglyceride Lipase ATGL and the Arf1 Activator GBF1” (PLoS ONE, 2011).

One assay deals with T1, GST-tagged ATGL(300–504) (human, UniProt Q96AD5 300-504).
T1 construct: source: E. coli BL21(DE3), purified (glutathione Sepharose 4B, Sephacryl S-200)
T1 sequence (looked up): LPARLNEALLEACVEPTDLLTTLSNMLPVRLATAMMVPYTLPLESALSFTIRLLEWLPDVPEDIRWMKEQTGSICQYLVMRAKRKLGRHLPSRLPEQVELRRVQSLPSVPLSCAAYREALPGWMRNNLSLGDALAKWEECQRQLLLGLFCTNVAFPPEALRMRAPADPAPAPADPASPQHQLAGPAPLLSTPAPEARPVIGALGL
Briefly: pull-down; quantitative: 0.1 nmole His-Sec7-GBF1(710–894) immobilised on Ni Sepharose, 1–20 µM GST-tagged ATGL(300–504) added; anti-GST immunoblot, bound versus free, Scatchard analysis; apparent Kd. Particulars: both partners purified.

Assay [1] has as its target Venus-tagged N-GBF1 D544A (human). Briefly: co-IP; Cos7 cells co-transfected with HA-tagged ATGL constructs and Venus-tagged constructs; IP with anti-GFP, blot with anti-HA; lysis in 50 mM Tris-HCl pH 7.5, 100 mM NaCl, 1 mM EDTA, 0.5% NP40; 4°C.
The target of assay [2] is Venus-tagged full-length GBF1 D544A (human) (UniProt Q92538). Described as above.
Sequence of Venus-tagged full-length GBF1 D544A (human) (Q92538 other isoform, or with tags, fused parts or gaps, stated change not applied): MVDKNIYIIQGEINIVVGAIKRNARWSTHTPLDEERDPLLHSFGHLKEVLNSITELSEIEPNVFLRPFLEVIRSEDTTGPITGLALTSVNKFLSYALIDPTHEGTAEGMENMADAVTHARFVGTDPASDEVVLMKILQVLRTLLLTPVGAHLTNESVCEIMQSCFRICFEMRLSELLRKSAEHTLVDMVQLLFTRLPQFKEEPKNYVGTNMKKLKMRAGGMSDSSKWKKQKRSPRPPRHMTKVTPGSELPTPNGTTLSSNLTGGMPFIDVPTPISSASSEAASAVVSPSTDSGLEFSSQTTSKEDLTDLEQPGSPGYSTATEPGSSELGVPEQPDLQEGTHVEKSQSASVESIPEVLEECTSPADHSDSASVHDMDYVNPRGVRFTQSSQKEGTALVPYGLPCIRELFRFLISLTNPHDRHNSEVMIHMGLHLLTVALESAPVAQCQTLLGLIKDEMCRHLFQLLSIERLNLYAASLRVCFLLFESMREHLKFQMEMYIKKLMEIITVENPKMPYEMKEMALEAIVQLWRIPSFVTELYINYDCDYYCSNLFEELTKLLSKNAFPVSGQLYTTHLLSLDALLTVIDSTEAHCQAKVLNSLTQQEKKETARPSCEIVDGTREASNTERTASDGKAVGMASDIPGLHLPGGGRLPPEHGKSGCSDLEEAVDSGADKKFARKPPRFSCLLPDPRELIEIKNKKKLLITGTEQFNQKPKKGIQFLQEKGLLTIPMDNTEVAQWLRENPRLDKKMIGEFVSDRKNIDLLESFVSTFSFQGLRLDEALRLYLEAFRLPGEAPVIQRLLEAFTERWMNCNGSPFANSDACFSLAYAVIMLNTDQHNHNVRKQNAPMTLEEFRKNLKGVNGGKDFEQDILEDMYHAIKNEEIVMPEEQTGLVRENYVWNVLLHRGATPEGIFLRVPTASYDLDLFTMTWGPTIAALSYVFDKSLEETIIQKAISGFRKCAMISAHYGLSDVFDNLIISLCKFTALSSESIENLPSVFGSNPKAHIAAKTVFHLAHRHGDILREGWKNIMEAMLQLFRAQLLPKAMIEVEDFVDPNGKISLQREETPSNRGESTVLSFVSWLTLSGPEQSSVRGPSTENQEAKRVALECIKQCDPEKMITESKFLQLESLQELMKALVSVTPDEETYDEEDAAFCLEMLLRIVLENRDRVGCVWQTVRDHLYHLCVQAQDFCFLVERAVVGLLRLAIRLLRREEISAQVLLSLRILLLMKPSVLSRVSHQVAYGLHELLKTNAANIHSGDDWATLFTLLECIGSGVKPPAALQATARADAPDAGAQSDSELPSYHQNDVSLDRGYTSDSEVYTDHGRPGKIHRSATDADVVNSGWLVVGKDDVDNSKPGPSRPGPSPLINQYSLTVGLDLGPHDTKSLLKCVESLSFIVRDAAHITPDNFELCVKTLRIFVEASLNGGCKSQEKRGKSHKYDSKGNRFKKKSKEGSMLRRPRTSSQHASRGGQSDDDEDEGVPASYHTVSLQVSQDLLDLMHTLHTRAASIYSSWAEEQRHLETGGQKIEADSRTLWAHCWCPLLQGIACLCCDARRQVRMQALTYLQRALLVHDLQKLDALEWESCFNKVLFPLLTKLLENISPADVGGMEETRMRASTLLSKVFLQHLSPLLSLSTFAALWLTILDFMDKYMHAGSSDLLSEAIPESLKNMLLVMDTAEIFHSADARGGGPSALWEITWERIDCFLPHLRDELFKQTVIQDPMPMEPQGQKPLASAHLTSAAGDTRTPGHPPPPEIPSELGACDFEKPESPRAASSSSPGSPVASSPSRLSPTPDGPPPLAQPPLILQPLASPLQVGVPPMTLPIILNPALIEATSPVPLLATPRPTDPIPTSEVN
Assay [3] deals with Venus-tagged GBF1 HDS1 domain (human). The assay is described as above.
Sequence of Venus-tagged GBF1 HDS1 domain (human) (Q92538 688-888): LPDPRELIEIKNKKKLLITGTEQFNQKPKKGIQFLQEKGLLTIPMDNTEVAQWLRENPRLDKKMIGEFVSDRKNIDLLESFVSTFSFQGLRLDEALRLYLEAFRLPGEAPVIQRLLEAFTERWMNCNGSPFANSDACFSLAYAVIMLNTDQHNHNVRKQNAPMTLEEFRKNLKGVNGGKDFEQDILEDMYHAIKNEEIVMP
The next assay has as its target Venus-ΔDCB-GBF1 (human). Described as above.

Sequence of Venus-ΔDCB-GBF1 (human) (Q92538 whole entry, stated change not applied): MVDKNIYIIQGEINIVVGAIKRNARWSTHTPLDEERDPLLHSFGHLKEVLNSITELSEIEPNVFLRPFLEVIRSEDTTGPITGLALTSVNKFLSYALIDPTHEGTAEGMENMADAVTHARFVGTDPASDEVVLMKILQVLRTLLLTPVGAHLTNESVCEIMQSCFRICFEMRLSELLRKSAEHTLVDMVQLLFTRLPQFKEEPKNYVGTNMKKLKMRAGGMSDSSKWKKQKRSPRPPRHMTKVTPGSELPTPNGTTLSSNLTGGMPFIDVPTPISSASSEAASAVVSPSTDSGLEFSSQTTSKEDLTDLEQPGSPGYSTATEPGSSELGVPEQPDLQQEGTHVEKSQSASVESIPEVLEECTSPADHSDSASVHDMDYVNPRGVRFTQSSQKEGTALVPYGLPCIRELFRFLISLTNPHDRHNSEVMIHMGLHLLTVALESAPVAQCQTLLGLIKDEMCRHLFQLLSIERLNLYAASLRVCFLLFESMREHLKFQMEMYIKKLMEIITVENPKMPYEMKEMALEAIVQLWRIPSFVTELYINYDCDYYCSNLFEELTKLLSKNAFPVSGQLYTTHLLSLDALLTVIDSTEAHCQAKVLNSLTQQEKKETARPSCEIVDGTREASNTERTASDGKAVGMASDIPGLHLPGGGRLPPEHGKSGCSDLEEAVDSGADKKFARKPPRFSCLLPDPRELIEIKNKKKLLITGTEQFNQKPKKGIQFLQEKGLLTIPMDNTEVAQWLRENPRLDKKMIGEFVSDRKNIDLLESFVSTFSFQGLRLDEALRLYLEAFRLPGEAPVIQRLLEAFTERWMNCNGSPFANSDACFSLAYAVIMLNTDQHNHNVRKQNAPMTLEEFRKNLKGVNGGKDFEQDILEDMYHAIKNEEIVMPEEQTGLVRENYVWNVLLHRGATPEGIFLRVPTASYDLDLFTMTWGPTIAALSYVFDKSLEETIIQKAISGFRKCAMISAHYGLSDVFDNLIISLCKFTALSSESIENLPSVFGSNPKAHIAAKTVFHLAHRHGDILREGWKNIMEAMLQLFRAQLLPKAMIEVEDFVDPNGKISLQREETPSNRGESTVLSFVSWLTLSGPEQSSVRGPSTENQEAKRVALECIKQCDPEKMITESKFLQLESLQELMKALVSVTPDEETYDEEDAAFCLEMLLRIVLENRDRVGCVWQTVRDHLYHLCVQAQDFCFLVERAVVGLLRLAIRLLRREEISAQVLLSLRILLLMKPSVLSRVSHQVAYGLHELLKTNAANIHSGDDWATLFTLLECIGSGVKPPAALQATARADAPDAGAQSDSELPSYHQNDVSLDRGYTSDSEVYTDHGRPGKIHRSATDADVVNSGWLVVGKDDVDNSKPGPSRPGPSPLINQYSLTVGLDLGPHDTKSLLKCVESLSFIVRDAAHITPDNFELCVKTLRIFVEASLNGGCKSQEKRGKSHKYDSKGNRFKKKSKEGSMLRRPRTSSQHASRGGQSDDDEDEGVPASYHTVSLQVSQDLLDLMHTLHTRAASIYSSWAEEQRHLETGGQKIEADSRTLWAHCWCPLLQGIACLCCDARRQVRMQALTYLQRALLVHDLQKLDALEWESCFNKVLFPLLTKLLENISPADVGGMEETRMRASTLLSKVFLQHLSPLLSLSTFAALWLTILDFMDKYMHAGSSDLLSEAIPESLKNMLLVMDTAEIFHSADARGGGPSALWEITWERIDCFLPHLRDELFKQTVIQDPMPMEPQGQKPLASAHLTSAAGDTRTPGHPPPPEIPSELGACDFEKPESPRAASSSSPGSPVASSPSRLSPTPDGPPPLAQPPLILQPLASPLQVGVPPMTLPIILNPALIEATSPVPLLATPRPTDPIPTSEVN

B1: His-Sec7-GBF1(710–894) (domain or fragment, human, UniProt Q92538-1 710-894, looked up)
chain: FNQKPKKGIQFLQEKGLLTIPMDNTEVAQWLRENPRLDKKMIGEFVSDRKNIDLLESFVSTFSFQGLRLDEALRLYLEAFRLPGEAPVIQRLLEAFTERWMNCNGSPFANSDACFSLAYAVIMLNTDQHNHNVRKQNAPMTLEEFRKNLKGVNGGKDFEQDILEDMYHAIKNEEIVMPEEQTGLV
notes: Sec7 domain, residues 710-894; the end of the His tag is read from the printed name; vector pBAD/His C; also called His-tagged Sec7 domain of GBF1; His-Sec7-GBF1 fragment; not shown: His tag, N-terminal, kept
Take B1: the Kd in the assay with GST-tagged ATGL(300–504) turned out to be 2.5 ± 0.3 µM.

B2: HA-tagged H. sapiens ATGL (full-length) (natural protein)
chain: MFPREKTWNISFAGCGFLGVYYVGVASCLREHAPFLVANATHIYGASAGALTATALVTGVCLGEAGAKFIEVSKEARKRFLGPLHPSFNLVKIIRSFLLKVLPADSHEHASGRLGISLTRVSDGENVIISHFNSKDELIQANVCSGFIPVYCGLIPPSLQGVRYVDGGISDNLPLYELKNTITVSPFSGESDICPQDSSTNIHELRVTNTSIQFNLRNLYRLSKALFPPEPLVLREMCKQGYRDGLRFLQRNGLLNRPNPLLALPPARPHGPEDKDQAVESAQAEDYSQLPGEDHILEHLPARLNEALLEACVEPTDLLTTLSNMLPVRLATAMMVPYTLPLESALSFTIRLLEWLPDVPEDIRWMKEQTGSICQYLVMRAKRKLGRHLPSRLPEQVELRRVQSLPSVPLSCAAYREALPGWMRNNLSLGDALAKWEECQRQLLLGLFCTNVAFPPEALRMRAPADPAPAPADPASPQHQLAGPAPLLSTPAPEARPVIGALGL
Regarding B2, the fold level of interaction over the wild type N-terminal region in assay [1] fell in the range of 5 to 10 fold. The fold level of interaction over wild type GBF1 (in assay [2]; with Venus-ΔDCB-GBF1 (human)) was 10 fold in each case. In assay [3], the percent of ATGL recovered in the co-IP stood at 10%.
